Measured values as given in patent US20240425571A1 (OHIO STATE INNOVATION FOUNDATION, published 2024).
Substitutions are numbered along the chain they refer to. Blank lines part the entries; values can stand above or below the binder they belong to.

What was measured:
[1] = molecular target: T1, human GARP (glycoprotein A repetitions predominant, LRRC32) on the cell surface (human, UniProt Q14392 20-662); test: FACS, Ag(+) cells, 0 ug/ml antibody (blank)
T1 construct: whole, on cells; also called hGARP; free GARP
T1 sequence (looked up): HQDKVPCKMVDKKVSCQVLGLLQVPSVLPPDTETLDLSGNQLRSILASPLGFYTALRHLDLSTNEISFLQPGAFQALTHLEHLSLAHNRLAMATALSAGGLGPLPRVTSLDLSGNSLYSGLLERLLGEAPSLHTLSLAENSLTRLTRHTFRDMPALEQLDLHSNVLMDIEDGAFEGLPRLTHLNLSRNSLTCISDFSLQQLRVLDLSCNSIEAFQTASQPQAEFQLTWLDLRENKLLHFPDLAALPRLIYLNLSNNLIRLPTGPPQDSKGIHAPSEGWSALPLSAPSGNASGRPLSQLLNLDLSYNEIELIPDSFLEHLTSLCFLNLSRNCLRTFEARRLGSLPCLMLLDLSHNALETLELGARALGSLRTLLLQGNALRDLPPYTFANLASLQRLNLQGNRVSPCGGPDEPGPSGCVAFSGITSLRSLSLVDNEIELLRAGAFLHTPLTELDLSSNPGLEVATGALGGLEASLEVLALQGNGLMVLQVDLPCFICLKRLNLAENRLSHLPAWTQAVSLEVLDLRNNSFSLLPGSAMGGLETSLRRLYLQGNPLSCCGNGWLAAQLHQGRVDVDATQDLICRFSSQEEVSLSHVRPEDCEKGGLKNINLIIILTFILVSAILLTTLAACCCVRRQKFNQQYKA

[2] = molecular target: T1, human GARP (glycoprotein A repetitions …); test: FACS, Ag(+) cells, culture supernatant, 1 ug/ml
[3] = molecular target: T1, human GARP (glycoprotein A repetitions …); test: FACS, Ag(+) cells, culture supernatant, 5 ug/ml
[4] = molecular target: T1, human GARP (glycoprotein A repetitions …); test: FACS, Ag(+) cells, culture supernatant, 0.2 ug/ml
[5] = molecular target: T1, human GARP (glycoprotein A repetitions …); test: FACS, Ag(+) cells, supernatant heated 70 C 5 min, 1 ug/ml
[6] = molecular target: T1, human GARP (glycoprotein A repetitions …); test: FACS, Ag(+) cells, supernatant heated 70 C 5 min, 5 ug/ml
[7] = molecular target: T1, human GARP (glycoprotein A repetitions …); test: FACS, Ag(+) cells, supernatant heated 70 C 5 min, 0.2 ug/ml
[8] = molecular target: T1, human GARP (glycoprotein A repetitions …); test: FACS, Ag(+) cells, heated-sample series, 0 ug/ml antibody (blank)
[9] = molecular target: T1, human GARP (glycoprotein A repetitions …); test: flow cytometry on human Tregs (drawn table)

MFI [1]: 9.91 MFI
MFI [2]: 24.9 MFI
MFI [3]: 26.3 MFI
MFI [4]: 22.4 MFI
MFI [5]: 25 MFI
MFI [6]: 25.1 MFI
MFI [7]: 21.7 MFI
MFI [8]: 9.91 MFI
B1: huPIIO-1VH4VL2 (antibody, V domains shown)
VH: DVQLQESGPGLVKPSQTLSLTCTVSGYSITSDYAWNWIRQFPGNKLEWMGYISYSGSTSYTPSLKSRITISRDTSKNHFFLQLSSVTAEDTATYYCAKSGGDYYGSSSYWYFDVWGQGTTVTVSS
VL: DIVLTQSPSSLAVSLGERVTMNCKSSQSLLNSRSQKNYLAWYQQKPGQPPKLLIYGASTRGSGVPDRFSGSGSGTDFTLTISSVQAEDVAVYYCQNDHSYPFTFGQGTKLEIKR
notes: Humanized IgG from Expi293, tested as culture supernatant; also called H4L2; HuPIIO-1VH4/L2

MFI [1]: 9.91 MFI
MFI [2]: 26.3 MFI
MFI [3]: 26.7 MFI
MFI [4]: 25 MFI
MFI [5]: 25.8 MFI
MFI [6]: 27 MFI
MFI [7]: 24.2 MFI
MFI [8]: 9.91 MFI
B2: huPIIO-1VH4VL3 (antibody, V domains shown)
VH: B1 VH
VL: B1 VL with L15A, N22S, Q106S
notes: Humanized IgG from Expi293, tested as culture supernatant; also called H4L3; HuPIIO-1VH4/L3

binding result [9]: binds
B3: 5C5 (antibody, V domains shown)
VH: EVKLVESGGGSVKPGGSLKLSCAASGFTFSNYVMSWVRQTPEKRLEWVATISSGGSYTYYPDSVKGRLTISRDNAKNTLYLQMSSLRSEDTAMYYCARGYDNGDYVMDYWGQGTSVTVSS
VL: DIVLTQSPASLAVSLGQRATISCRASESVDTYGNSFMHWYQQIPGQPPKVLIYRASNLESGIPARFSGSGSRTDFTLTINPVEAGDVATYYCQQTNEHPPTFGGGTKLEIK
notes: anti-human GARP clone; printed 5C5 on the sheets, 5c5 / m5c5 / 5C5 in the text; also called m5c5
